Patent US8187838B2, “β-Galactoside-α2, 6-sialyltransferase, a gene encoding thereof, and a method for producing thereof” (Japan Tobacco Inc., priority 2006, dated 2012)

Legend:
[1] = Sialic acid transfer reaction using various glycosyl acceptor substrates (monosaccharides, disaccharides, trisaccharide); format: biochemical; conditions: for Sialyltransferase activity: pH 5.0, 30° C., 500 mM NaCl
Text: Cell homogenates prepared from E. coli cells into which JT-ISH-224-derived N1C0 had been introduced and from Photobacterium damselae strain JT0160 were each purified by ion exchange chromatography and hydroxyapatite chromatography to give an electrophoretically single band. The thus purified β-galactoside-α2,6-sialyltransferases were used in the following experiment in order to examine the presence or absence of sialyltransferase activity toward various monosaccharides, disaccharides and trisaccharides.
A reaction solution (24 μl) was prepared to contain CMP-^14C-NeuAc-containing CMP-NeuAc as a glycosyl donor substrate (10.9 nmol (8485 cpm), final concentration in the reaction solution: 0.455 mM), any of various glycosyl acceptor substrates dissolved in 20 mM cacodylate buffer (pH 5.0) (1 μmol, final concentration in the reaction solution: 42 mM), sialyltransferase (3.0 mU for JT-ISH-224-derived N1C0, 4.3 mU for JT0160) and NaCl (final concentration in the reaction solution: 500 mM), and reacted at 30° C. for 2 minutes or 60 minutes. The monosaccharides used as glycosyl acceptor substrates were the following 8 types: methyl-α-D-galactopyranoside (Gal-α-OMe), methyl-β-D-galactopyranoside (Gal-β-OMe), methyl-α-D-glucopyranoside (Glc-α-OMe), methyl-β-D-glucopyranoside (Glc-β-OMe), methyl-α-D-mannopyranoside (Man-α-OMe), methyl-β-D-mannopyranoside (Man-β-OMe), N-acetylgalactosamine ([…]), and N-acetylglucosamine ([…]). The disaccharides used were the following 5 types: lactose (Gal-β1,4-Glc), N-acetyllactosamine (Gal-β1,4-GlcNAc), methyl-β-D-galactopyranosyl-β1,3-N-acetylglucosaminide (Gal-β1,3-GlcNAc-β-OMe), methyl-α-D-galactopyranosyl-α1,3-galactopyranoside (Gal-α1,3-Gal-α-OMe), and methyl-β-D-galactopyranosyl-β1,3-galactopyranoside (Gal-β1,3-Gal-β-OMe). The trisaccharide used was 2′-fucosyllactose (Fuc-α1,2-Galβ1,4-Glc). It should be noted that the final concentration was set to 8.4 mM for the sugar chains shown in Table 4-2, i.e., methyl-α-D-galactopyranosyl-α1,3-[…] (Gal-α1,3-Gal-α-OMe), methyl-β-D-galactopyranosyl-β1,3-galactosaminide (Gal-β1,3-Gal-β-OMe) and 2′-fucosyllactose (Fuc-α1,2-Galβ1,4-Glc).
After completion of the enzymatic reaction, 1.98 ml of 5 mM phosphate buffer (pH 6.8) was added to the reaction solution to stop the enzymatic reaction. Then, the enzymatic reaction solution was diluted with 5 mM phosphate buffer (Ph 6.8) and applied in a volume of 2 ml to a AG1-×2Resin (PO4^3− form, 0.2×2 cm) column. This column was prepared as follows: AG1-×2Resin (OH^− form, BIO-RAD) was suspended in 1 M phosphate buffer (pH 6.8), and after 30 minutes, the resin was washed with distilled water and then suspended in distilled water. The eluate (0 to 2 ml) from this column was measured for its radioactivity. The eluate from this column contains the unreacted glycosyl acceptor substrate and the ^14C-NeuAc (N-acetylneuraminic acid)-bound reaction product which was generated by the reaction, whereas unreacted CMP-^14C-NeuAc is still retained on the column. Thus, the radioactivity of ^14C from each sialic acid-containing sugar chain generated as a result of the enzymatic reaction arises exclusively from the reaction product, so that the radioactivity of this fraction can be used to calculate the enzyme activity.
In the manner described above, the radioactivity of NeuAc transferred to each glycosyl acceptor substrate was measured to calculate the amount of transferred sialic acid.

[2] = Sialyltransferase activity of samples after each purification step; format: biochemical; conditions: for Specific activity (U/mg) / Total activity (U): Bis-Tris pH 6, 5 minutes, 25° C.
Protocol: Sialyltransferase activity was measured as described in J. Biochem., 120, 104-110 (1996) (which is hereby incorporated by reference in its entirety). More specifically, the enzymatic reaction was accomplished by using CMP-NeuAc (70 nmol, containing about 20,000 cpm CMP-NeuAc in which NeuAc was labeled with ^14C; NeuAc represents N-acetylneuraminic acid) as a glycosyl donor substrate, lactose (1.25 μmol) as a glycosyl acceptor substrate, NaCl added to give a concentration of 0.5 M, and the enzyme-containing reaction solution (30 μl) prepared as described above. The enzymatic reaction was carried out at 25° C. for about 10 to 180 minutes. After completion of the reaction, 1.97 ml of 5 mM phosphate buffer (pH 6.8) was added to the reaction solution, which was then applied to a Dowex 1×8 (PO4^3− form, 0.2×2 cm, BIO-RAD) column. The radioactivity was measured for the reaction product, i.e., sialyllactose contained in the eluate (0 to 2 ml) from this column to calculate the enzyme activity. One enzyme unit (1 U) is defined as the amount of enzyme required to transfer 1 micromole of sialic acid per minute.
(§1) The enzyme activity was measured by the method reported in J. Biochem. 120, 104-110 (1996), in the same manner as described in Example 1 under conditions as indicated in the footnote of Table 3-1. For protein quantification, a Coomassie Protein Assay Reagent (PIERCE) was used according to the instruction manual attached thereto. One enzyme unit (1U) was defined as the amount of enzyme required to transfer 1 micromole of sialic acid per minute.
Reaction time: 5 minutes Reaction temperature: 25° C.
as §1, with “3-2.” for “3-1.”
Reaction Conditions Reaction composition:
Reaction time: 5 minutes Reaction temperature: 30° C.

[3] = after MONO Q (purified fraction)

B1: ISH224-N1C0 (protein, listed as Photobacterium sp.)
chain: MSEENTQSIIKNDINKTIIDEEYVNLEPINQSNISFTKHSWVQTCGTQQLLTEQNKESISLSVVAPRLDDDEKYCFDFNGVSNKGEKYITKVTLNVVAPSLEVYVDHASLPTLQQLMDIIKSEEENPTAQRYIAWGRIVPTDEQMKELNITSFALINNHTPADLVQEIVKQAQTKHRLNVKLSSNTAHSFDNLVPILKELNSFNNVTVTNIDLYDDGSAEYVNLYNWRDTLNKTDNLKIGKDYLEDVINGINEDTSNTGTSSVYNWQKLYPANYHFLRKDYLTLEPSLHELRDYIGDSLKQMQWDGFKKFNSKQQELFLSIVNFDKQKLQNEYNSSNLPNFVFTGTTVWAGNHEREYYAKQQINVINNAINESSPHYLGNSYDLFFKGHPGGGIINTLIMQNYPSMVDIPSKISFEVLMMTDMLPDAVAGIASSLYFTIPAEKIKFIVFTSTETITDRETALRSPLVQVMIKLGIVKEENVLFWADLPNCETGVCIAV
Question: Which “acceptor substrate specificity compared to the known JT0160 enzyme (in words)” value ([1]; 14 monosaccharides, disaccharides and trisaccharide) does the source give for B1 here?
Answer: wider range of acceptor substrate specificity

Question: What about the “Sialyltransferase activity Relative activity (%)” value ([1]; acceptor 2′-Fucosyllactose (Fuc-α1,2-Galβ1,4-Glc), 8.4 mM, lactose = 100) of the same molecule?
Answer: 92.1%

Question: And the Sialyltransferase activity ([1]; acceptor 2′-Fucosyllactose (Fuc-α1,2-Galβ1,4-Glc), 8.4 mM)?
Answer: 1.316 nmol/min

Question: What about the Sialyltransferase activity ([1]; acceptor Lactose (Galβ1,4-Glc), 42 mM, Table 4-1) of the same molecule?
Answer: 1.875 nmol/min

Question: And the “Sialyltransferase activity Relative activity (%)” value ([1]; acceptor Lactose (Galβ1,4-Glc), 42 mM, Table 4-1, set to 100)?
Answer: 100.0%

Question: What about the Sialyltransferase activity ([1]; acceptor Lactose (Galβ1,4-Glc), series of Table 4-2 (other acceptors 8.4 mM)) of the same molecule?
Answer: 1.428 nmol/min

Question: And the “Sialyltransferase activity Relative activity (%)” value ([1]; acceptor Lactose (Galβ1,4-Glc), series of Table 4-2, set to 100)?
Answer: 100.0%

Question: What about the “Sialyltransferase activity Relative activity (%)” value ([1]; acceptor Methylαgalactopyranoside (Galα-OMe), 42 mM, lactose = 100) of the same molecule?
Answer: 2.0%

Question: What about the Sialyltransferase activity ([1]; acceptor Methylαgalactopyranoside (Galα-OMe), 42 mM) of the same molecule?
Answer: 0.038 nmol/min

Question: What about the “Sialyltransferase activity Relative activity (%)” value ([1]; acceptor Methylαgalactopyranosyl α1,3-galactopyranoside (Galα1,3-Galα-OMe), 8.4 mM, lactose = 100) of the same molecule?
Answer: 1.6%

Question: And the Sialyltransferase activity ([1]; acceptor Methylαgalactopyranosyl α1,3-galactopyranoside (Galα1,3-Galα-OMe), 8.4 mM)?
Answer: 0.023 nmol/min

Question: What about the “Sialyltransferase activity Relative activity (%)” value ([1]; acceptor Methylαglucopyranoside (Glcα-OMe), 42 mM, lactose = 100) of the same molecule?
Answer: 0.4%

Question: What about the Sialyltransferase activity ([1]; acceptor Methylαglucopyranoside (Glcα-OMe), 42 mM) of the same molecule?
Answer: 0.008 nmol/min

Question: What about the “Sialyltransferase activity Relative activity (%)” value ([1]; acceptor Methylαmannopyranoside (Manα-OMe), 42 mM, lactose = 100) of the same molecule?
Answer: 0.5%

Question: And the Sialyltransferase activity ([1]; acceptor Methylαmannopyranoside (Manα-OMe), 42 mM)?
Answer: 0.010 nmol/min

Question: What about the “Sialyltransferase activity Relative activity (%)” value ([1]; acceptor Methylβ-galactopyranosylβ1,3-N-acetylglucosaminide (Galβ1,3-GlcNAcβ-OMe), 42 mM, lactose = 100) of the same molecule?
Answer: 76.5%

Question: What about the Sialyltransferase activity ([1]; acceptor Methylβ-galactopyranosylβ1,3-N-acetylglucosaminide (Galβ1,3-GlcNAcβ-OMe), 42 mM) of the same molecule?
Answer: 1.435 nmol/min

Question: And the “Sialyltransferase activity Relative activity (%)” value ([1]; acceptor Methylβgalactopyranoside (Galβ-OMe), 42 mM, lactose = 100)?
Answer: 59.2%

Question: And the Sialyltransferase activity ([1]; acceptor Methylβgalactopyranoside (Galβ-OMe), 42 mM)?
Answer: 1.110 nmol/min

Question: What about the “Sialyltransferase activity Relative activity (%)” value ([1]; acceptor Methylβgalactopyranosyl β1,3-galactopyranoside (Galβ1,3-Galβ-OMe), 8.4 mM, lactose = 100) of the same molecule?
Answer: 67.5%

Question: What about the Sialyltransferase activity ([1]; acceptor Methylβgalactopyranosyl β1,3-galactopyranoside (Galβ1,3-Galβ-OMe), 8.4 mM) of the same molecule?
Answer: 0.964 nmol/min

Question: What about the “Sialyltransferase activity Relative activity (%)” value ([1]; acceptor Methylβglucopyranoside (Glcβ-OMe), 42 mM, lactose = 100) of the same molecule?
Answer: 0.5%

Question: What about the Sialyltransferase activity ([1]; acceptor Methylβglucopyranoside (Glcβ-OMe), 42 mM) of the same molecule?
Answer: 0.009 nmol/min

Question: What about the “Sialyltransferase activity Relative activity (%)” value ([1]; acceptor Methylβmannopyranoside (Manβ-OMe), 42 mM, lactose = 100) of the same molecule?
Answer: 0.4%

Question: What about the Sialyltransferase activity ([1]; acceptor Methylβmannopyranoside (Manβ-OMe), 42 mM) of the same molecule?
Answer: 0.008 nmol/min

Question: And the “Sialyltransferase activity Relative activity (%)” value ([1]; acceptor N-Acetylgalactosamine (GalNAc), 42 mM, lactose = 100)?
Answer: 12.2%

Question: What about the Sialyltransferase activity ([1]; acceptor N-Acetylgalactosamine (GalNAc), 42 mM) of the same molecule?
Answer: 0.228 nmol/min

Question: And the “Sialyltransferase activity Relative activity (%)” value ([1]; acceptor N-Acetylglucosamine (GlcNAc), 42 mM, lactose = 100)?
Answer: 0.4%

Question: What about the Sialyltransferase activity ([1]; acceptor N-Acetylglucosamine (GlcNAc), 42 mM) of the same molecule?
Answer: 0.008 nmol/min

Question: And the “Sialyltransferase activity Relative activity (%)” value ([1]; acceptor N-Acetyllactosamine (Gatβ1,4-GlcNAc), 42 mM, lactose = 100)?
Answer: 99.3%

Question: And the Sialyltransferase activity ([1]; acceptor N-Acetyllactosamine (Gatβ1,4-GlcNAc), 42 mM)?
Answer: 1.861 nmol/min

Question: And the “Specific activity (U/mg)” value ([2]; Crude enzyme solution)?
Answer: 12.0 U/mg

Question: And the “Total activity (U)” value ([2]; Crude enzyme solution)?
Answer: 13167 U

Question: What about the “Specific activity (U/mg)” value ([2]; after Hydroxyapatite) of the same molecule?
Answer: 68.3 U/mg

Question: What about the “Total activity (U)” value ([2]; after Hydroxyapatite) of the same molecule?
Answer: 9448 U

Question: What about the “Specific activity (U/mg)” value [2, 3] of the same molecule?
Answer: 113 U/mg

Question: And the “Total activity (U)” value [2, 3]?
Answer: 2720 U

Question: What about the “Specific activity (U/mg)” value ([2]; after Q SEPHAROSE) of the same molecule?
Answer: 31.8 U/mg

Question: What about the “Total activity (U)” value ([2]; after Q SEPHAROSE) of the same molecule?
Answer: 11794 U

Question: What about the “fold higher specific activity than Pasteurella multocida-derived β-galactoside-α2,3-sialyltransferase (60 U/mg)” value ([2]; purified fraction) of the same molecule?
Answer: about 1.9 fold

Question: What about the “fold higher specific activity than β-galactoside-α2,6-sialyltransferase derived from Photobacterium damselae strain JT0160 (5.5 U/mg)” value ([2]; purified fraction) of the same molecule?
Answer: about 21 fold
